# Laboratory results as given in patent US20110111454.
# B1: CgtBOH4384 (FL, N-terminal MalE) (protein)
# chain: MFKISIILPTYNVEQYIARAIESCINQTFKDIEIIVVDDCGNDNSINIAKEYSKKDKRIKIIHNEKNLGLLRARYEGVKVANSPYIMFLDPDDYLELNACEECIKILDEQDEVDLVFFNAIVESNVISYKKFDFNSGFYSKKEFVKKIIAKKNLYWTMWGKLIRKKLYLEAFASLRLEKDVKINMAEDVLLYYPMLSQAQKIAYMNCNLYHYVPNNNSICNTKNEVLVKNNIQELQLVLNYLRQNYILNKYCSVLYVLIKYLLYIQIYKIKRTKLMVTLLAKINILTLKILFKYKKFLKQC
# B2: CgtB11168 (FL, N-terminal MalE) (protein)
# chain: MSQISIILPTYNVEKYIARALESCINQTFKDIEIIVVDDCGNDKSIDIAKEYASKDDRIKIIHNEENLKLLRARYEGAKVATSPYIMFLDSDDYLELNACEECIKILDMGGGGKIDLLCFEAFITNAKKSIKKLNIKQGKYNNKEFTMQILKTKNPFWTMWAKIIKKDIYLKAFNMLNLKKEIKINMAEDALLYYPLTILSNEIFYLTQPLYTQHVNSNSITNNINSLEANIQEHKIVLNVLKSIKNKKTPLYFLIIYLLKIQLLKYEQNFNKRNINLIYYKINILYQKYQFKWKKFLYNLIP
# Target: T1, IFNα2b[Tn]-FCHASE
# T1 chain: VGVTETP
Protein,Specific Activity (mU/mg) on 1 mM IFNα2b[Tn]-FCHASE [mU/mg],conversion of the glycopeptide acceptor by capillary electrophoresis
B1,83.5,–
B2,–,ND^2 (For the CgtB enzyme from the 11168 only very low-level conversion was detectable on the glycopeptide acceptor by capillary electrophoresis <5%.)
